In article PMC11261448:

B1: wrmScarlet::TDPT-1 [C. elegans] / TOP-2::3xFLAG [C. elegans] (parent)
chain 1: MSNSDDEIQEIEAKRQKMSQEDSEVEIEILDEPEQGKLKNSSMSDEQKLHEFAIITATDEAFAQSILQDVDWDLKKALDVFYGSEAFAEARSAAVMGASSSMASSGAAVMTAEDLKGFEVSVMSWNIDGLDGRSLLTRMKAVAHIVKNVNPDILFLQEVVDRDLAPIDKLQSLYKIYYSNKGCQYYTAILVSKMFDVEKHDVIHFQNSGMYRTLQILEGSIGGLKVFLLNTHLESTREHRPQRCAQFGFCMDKVREIIAQNPGALVFFGGDLNLRDEEVSRVPDGVKDAWEAAGSDNKTKFTWDTFKNDNKQGFHGAKMRFDRLYWSGPLDKVKFTLEGRQRIRSCLCFPSDHWAINATFFA
chain 2: MSDSDSEFSIEDSPKKKTAPKKEKASPKKKKDDANESMVMTEEDRNVFTSIDKKGGGSKQMAIEDIYQKKSQLEHILLRPDTYIGSVEHTEKTPMWVYNMEESKLEQRDISYVPGLYKIYDEILVNAADNKQRDPKMNTIKITINKEKNEISVYNNGKGIPVTQHKVEKVYVPELIFGTLLTSSNYNDDEKKVTGGRNGYGAKLCNIFSTKFTLETSSRDYKSAFKQTWIKNMTRDEEPKIVKSTDEDFTKITFSPDLAKFKMKELDDDICHLMARRAYDVAGSSKGVAVFLNGKRIPIKGFEDYVQMYTSQFNNEGEPLKIAYEQVGDRWQVALALSEKGFQQVSFVNSIATTKGGRHVDYVADQMVAKFIDSIKRKLTKTSMNIKPFQIKNHMWVFVNCLIENPTFDSQTKETMTLQQKQFGSTCVLSEKFSKAASSVGITDAVMSWVRFKQMDDLNKKCSKTKTSKLKGIPKLEDANDAGTKNSQQCTLILTEGDSAKTLAVSGLSVVGRDKYGVFPLRGKLLNVREGNMKQIADNAEVNAMIKILGLQYKKKYETEDDFKTLRYGKLMVMADQDQDGSHIKGLVINFIHHFWPSLIQRNFVEEFITPIVKATKGKEEVSFYSLPEYSEWRMNTDNWKSYKIKYYKGLGTSTSKEAKEYFLDMVRHRIRFKYNGADDDNAVDMAFSKKKIEERKDWLSKWMREKKDRKQQGLAEEYLYNKDTRFVTFKDFVNRELVLFSNLDNERSIPCLVDGFKPGQRKVLFACFKRADKREVKVAQLAGAVAEISAYHHGEQSLMGTIVNLAQDYVGSNNINLLLPIGQFGTRLQGGKDSASARYIFTQLSPVTRTLFPAHDDNVLRFLYEENQRIEPEWYCPIIPMVLVNGAQGIGTGWSTNIPNYNPRELVKNIKRLIAGEPQKALAPWYKNFRGKIIQIDPSRFACYGEVAVLDDNTIEITELPIKQWTQDYKEKVLEGLMESSDKKSPVIVDYKEYHTDTTVKFVVKLSPGKLRELERGQDLHQVFKLQAVINTTCMVLFDAAGCLRTYTSPEAITQEFYDSRQEKYVQRKEYLLGVLQAQSKRLTNQARFILAKINNEIVLENKKKAAIVDVLIKMKFDADPVKKWKEEQKLKELRESGEIELDEDDLAAVAVEEDEAISSAAKAVETKLSDYDYLVGMALIKLSEEEKNKLIKESEEKMAEVRVIEKKTWQDLWHEDLDNFVSELDKQEAREKADQDASIKNAAKKLAADAKTGRGPKKNVCTEVLPSKDGQRIEPMLDAATKAKYEKMSQPKKERVKKEPKEPKEPKKVKKEGQDIKKFMSPAAPKTAKKEKSDGFNSDMSEESDVEFDEGIDFDSDDDGVEREDVVSKPKPRTGKGAAKAEVIDLSDDDEVPAKKPAPAKKAAPKKKKSEFSDLSGGDSDEEAEKKPSTSKKPSPKKAAPKTAEPKSKAVTDFFGASKKNGKKAAGSDDEDDESFVVAPREKSGRARKAPPTYDVDSGSDSDQPKKKRGRVVDSDSD

Variants of: B1
Assay: co-immunoprecipitation (anti-FLAG magnetic agarose beads) with anti-RFP immunoblot, band quantification
Conditions: with TOP-2::3xFLAG [C. elegans]; parent: 1; read off a plot

| ratio to parent | Variant |
| --- | --- |
| 0.42 | chain 1 G117R |

Same assay, conditions: with wrmScarlet::TDPT-1 [C. elegans]; parent: 1; read off a plot

| ratio to parent | Variant |
| --- | --- |
| 1 | chain 2 R828C |
